Results taken from FireProtDB (doi:10.1111/febs.14143).
Values joined by “and” are separate entries in the source; they are usually repeats but may differ in a detail not shown here. Equal values may be shown once.

B1: Guanine nucleotide-binding protein G(i) subunit alpha-3, P08753 (parent)
chain: MGCTLSAEDKAAVERSKMIDRNLREDGEKAAKEVKLLLLGAGESGKSTIVKQMKIIHEDGYSEDECKQYKVVVYSNTIQSIIAIIRAMGRLKIDFGEAARADDARQLFVLAGSAEEGVMTSELAGVIKRLWRDGGVQACFSRSREYQLNDSASYYLNDLDRISQTNYIPTQQDVLRTRVKTTGIVETHFTFKELYFKMFDVGGQRSERKKWIHCFEGVTAIIFCVALSDYDLVLAEDEEMNRMHESMKLFDSICNNKWFTDTSIILFLNKKDLFEEKIKRSPLTICYPEYTGSNTYEEAAAYIQCQFEDLNRRKDTKEVYTHFTCATDTKNVQFVFDAVTDVIIKNNLKECGLY

Variants of: B1
Conditions: Rattus norvegicus; pH 7.5; Thermal; DSC; HEPES; NaCl MgCl2 50000 2000; transition: 2; reversible: yes; structure 6MHE; whole UniProt chain shown

| Variant | Tm [°C] |
| --- | --- |
| MGCTLSAEDKAAVERSKMIDRNLREDGEKAAKEVKLLLLGAGESGKSTIVKQMKIIHEDGYSEDECKQYKVVVYSNTIQSIIAIIRAMGRLKIDFGEAARADDARQLFVLAGSAEEGVMTSELAGVIKRLWRDGGVQACFSRSREYQLNDSASYYLNDLDRISQTNYIPTQQDVLRTRVKTTGIVETHFTFKELYFKMFDVGGQRSERKKWIHCFEGVTAIIFCVALSDYDLVLAEDEEMNRMHESMKLFDSICNNKWFTDTSIILFLNKKDLFEEKIKRSPLTICYPEYTGSNTYEEAAAYIQCQFEDLNRRKDTKEVYTHFTCATDAKNVQFVFDAVTDVIIKNNLKECGLY [T329A] | 65 |

Same assay, conditions: Rattus norvegicus; pH 7.5; Thermal; Fluorescence; HEPES; NaCl MgCl2 50000 2000; transition: 2; reversible: yes; structure 6MHE; whole UniProt chain shown

| Variant | Tm |
| --- | --- |
| MGCTLSAEDKAAVERSKMIDRNLREDGEKAAKEVKLLLLGAGESGKSTIVKQMKIIHEDGYSEDECKQYKVVVYSNTIQSIIAIIRAMGRLKIDFGEAARADDARQLFVLAGSAEEGVMTSELAGVIKRLWRDGGVQACFSRSREYQLNDSASYYLNDLDRISQTNYIPTQQDVLRTRVKTTGIVETHFTFKELYFKMFDVGGQRSERKKWIHCFEGVTAIIFCVALSDYDLVLAEDEEMNRMHESMKLFDSICNNKWFTDTSIILFLNKKDLFEEKIKRSPLTICYPEYTGSNTYEEAAAYIQCQFEDLNRRKDTKEVYTHFTCSTDTKNVQFVFDAVTDVIIKNNLKECGLY [A326S] | 64 °C and 62.5 °C |
| MGCTLSAEDKAAVERSKMIDRNLREDGEKAAKEVKLLLLGAGESGKSTIVKQMKIIHEDGYSEDECKQYKVVVYSNTIQSIIAIIRAMGRLKIDFGEAARADDARQLFVLAGSAEEGVMTSELAGVIKRLWRDGGVQACFSRSREYQLNDSASYYLNDLDRISQTNYIPTQQDVLRTRVKTTGIVETHFTFKELYFKMFDVGAQRSERKKWIHCFEGVTAIIFCVALSDYDLVLAEDEEMNRMHESMKLFDSICNNKWFTDTSIILFLNKKDLFEEKIKRSPLTICYPEYTGSNTYEEAAAYIQCQFEDLNRRKDTKEVYTHFTCATDTKNVQFVFDAVTDVIIKNNLKECGLY [G203A] | 57.5 °C |
